Measured values: CN116836274A (DONGGUAN PENGZHI BIOTECHNOLOGY CO LTD, dated 2023)

T1: 血清淀粉样蛋白A (Serum amyloid A, SAA), 购自Yashraj biotechnology limited, 货号FRSAA-61 (UniProt P0DJI8 19-122, limits assumed)
T1 construct: Bought antigen
T1 sequence (looked up): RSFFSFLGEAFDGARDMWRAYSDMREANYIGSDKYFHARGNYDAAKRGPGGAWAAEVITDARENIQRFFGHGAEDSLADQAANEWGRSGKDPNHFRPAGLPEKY


Key:
[1] = target: 血清淀粉样蛋白A (Serum amyloid A, SAA), 购自Yashraj biotechnology limited, 货号FRSAA-61 (UniProt P0DJI8); assay: biosensor with AMC sensors, antibody captured at 10 ug/ml, SAA in a dilution series in PBST
[2] = target: T1, 血清淀粉样蛋白A (Serum amyloid A, SAA), …; assay: as above

Kd [1] [nM] | koff [1] [s⁻¹] | kon [1] [M⁻¹ s⁻¹] | Kd [2] [nM] | koff [2] [s⁻¹] | kon [2] [M⁻¹ s⁻¹] | Molecule
9.01 | 0.000219 | 24300 |  |  |  | 对照 (antibody)
 |  |  | 0.0386 | 1.3e-06 | 33700 | Anti-SAA-11A4mut3 (antibody, V domains shown) VH: QVQLQQSGAELVRPGVSVKISCKGSGYTFTDYAMHWVKQSHAKSLEWIGVINTYYGDASYNQKFKGKATMTEDKSSSTVYMELARLTSEDSAIYYCARGSSIMITSWFAYWGQGTLVTVSA VL: DIQMTQSPASLSASVGETVTITCRASENIYSYLAWYQQKQGKSPQLLVYNAKTLAEGVPSRFSGSGSGTQFSLKINSLQPEDFGSYYCQHHYGTPITFGTGTKLELKR

Continued, molecule first:

Molecule | Kd [1] [nM] | koff [1] [s⁻¹] | kon [1] [M⁻¹ s⁻¹] | Kd [2] [nM] | koff [2] [s⁻¹] | kon [2] [M⁻¹ s⁻¹]
Anti-SAA-11A4mut1 (antibody, mouse IgG1, kappa, V domains shown) VH: QVQLQQSGAELVRPGVSVKISCKGSGYTFTDYAMHWVKQSHAKSLEWIGVINTYYGDASYNQKFKGKATMTEDKSSSTVYMELARLTSEDSAIYYCARGSSIMITSWFAYWGQGTLVTVSA VL: DIQMTQSPASLSASVGETVTITCRASENIYSYLAWYQQKQGKSPQLLVYNAKTLAEGVPSRFSGSGSGTQFSLKINSLQPEDFGSYYCQHHYGTPLTFGTGTKLELKR |  |  |  | 0.0322 | 1.12e-06 | 34800
Anti-SAA-11A4mut2 (antibody, mouse IgG1, kappa, V domains shown) VH: QVQLQQSGAELVRPGVSVKISCKGSGYTFTDYAMHWVKQSHAKSLEWIGVINTYYGDASYNQKFKGKATMTEDKSSSTVYMELARLTSEDSAIYYCARGSSLMITSWFAYWGQGTLVTVSA VL: DIQMTQSPASLSASVGETVTITCRASENIYSYLAWYQQKQGKSPQLLVYNAKTLAEGVPSRFSGSGSGTQFSLKINSLQPEDFGSYYCQHHYGTPLTFGTGTKLELKR |  |  |  | 0.827 | 3.05e-05 | 36900
